Source: article PMC9948308, “DnaK and DnaJ proteins from Hsp70/40 family are involved in Rubisco biosynthesis in Synechocystis sp. PCC6803 and sustain the enzyme assembly in a heterologous system” (BMC Plant Biology, 2023)

T1: RbcL (Rubisco large subunit) from Synechocystis sp. PCC6803, unfolded, isolated from inclusion bodies (Synechocystis sp. PCC6803, UniProt P54205 1-470)
T1 chain: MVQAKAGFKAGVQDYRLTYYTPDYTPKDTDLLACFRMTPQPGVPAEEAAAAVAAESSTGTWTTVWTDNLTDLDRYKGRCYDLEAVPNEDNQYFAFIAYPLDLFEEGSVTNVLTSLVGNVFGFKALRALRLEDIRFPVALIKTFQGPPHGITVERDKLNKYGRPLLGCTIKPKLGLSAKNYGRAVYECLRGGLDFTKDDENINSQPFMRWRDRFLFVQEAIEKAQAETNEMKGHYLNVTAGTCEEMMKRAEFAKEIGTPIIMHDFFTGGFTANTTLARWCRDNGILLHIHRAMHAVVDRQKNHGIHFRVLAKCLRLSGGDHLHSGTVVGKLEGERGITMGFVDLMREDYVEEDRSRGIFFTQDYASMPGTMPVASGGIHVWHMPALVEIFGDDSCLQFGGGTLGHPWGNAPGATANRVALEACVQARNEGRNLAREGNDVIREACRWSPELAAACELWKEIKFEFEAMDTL

B1: RbcL (Rubisco large subunit) from Synechocystis sp. PCC6803, unfolded, isolated from inclusion bodies (natural protein, UniProt P54205 1-470, looked up)
chain: MVQAKAGFKAGVQDYRLTYYTPDYTPKDTDLLACFRMTPQPGVPAEEAAAAVAAESSTGTWTTVWTDNLTDLDRYKGRCYDLEAVPNEDNQYFAFIAYPLDLFEEGSVTNVLTSLVGNVFGFKALRALRLEDIRFPVALIKTFQGPPHGITVERDKLNKYGRPLLGCTIKPKLGLSAKNYGRAVYECLRGGLDFTKDDENINSQPFMRWRDRFLFVQEAIEKAQAETNEMKGHYLNVTAGTCEEMMKRAEFAKEIGTPIIMHDFFTGGFTANTTLARWCRDNGILLHIHRAMHAVVDRQKNHGIHFRVLAKCLRLSGGDHLHSGTVVGKLEGERGITMGFVDLMREDYVEEDRSRGIFFTQDYASMPGTMPVASGGIHVWHMPALVEIFGDDSCLQFGGGTLGHPWGNAPGATANRVALEACVQARNEGRNLAREGNDVIREACRWSPELAAACELWKEIKFEFEAMDTL
notes: Ribulose-1,5-bisphosphate carboxylase/oxygenase large subunit (RbcL), Synechocystis sp; PCC6803; used denatured/unfolded; Used as an unfolded protein diluted from GdnHCl; also called unfolded RbcL; denatured RbcL peptide; source: E. coli BL21 (DE3), purified from inclusion bodies, solubilized in 4 M GdnHCl

Experiments:
[1] = target: T2, DnaK2 together with DnaJ Sll1384 (both tested chaperones, with ATP) in the MST titration (Synechocystis sp. PCC6803, UniProt P22358 1-636; P74157 1-314); assay: MST; His-tagged chaperone labelled with RED-tris-NTA (4 µM or 200 nM) and unfolded RbcL in PBS-T (0.1% Tween 20), with ATP; Monolith NT.115 pico; 1:1 binding model; settings: both partners purified
T2 construct: DnaK2, Synechocystis sp; PCC6803, as the chain of m3; DnaJ Sll1384, Synechocystis sp; PCC6803, as the chain of m2; also called DnaK + DnaJ; source: E. coli Lemo21, each purified (Ni-NTA; DnaK2 also Superdex 200), mixed
T2 sequence (P22358 whole entry, one chain of several): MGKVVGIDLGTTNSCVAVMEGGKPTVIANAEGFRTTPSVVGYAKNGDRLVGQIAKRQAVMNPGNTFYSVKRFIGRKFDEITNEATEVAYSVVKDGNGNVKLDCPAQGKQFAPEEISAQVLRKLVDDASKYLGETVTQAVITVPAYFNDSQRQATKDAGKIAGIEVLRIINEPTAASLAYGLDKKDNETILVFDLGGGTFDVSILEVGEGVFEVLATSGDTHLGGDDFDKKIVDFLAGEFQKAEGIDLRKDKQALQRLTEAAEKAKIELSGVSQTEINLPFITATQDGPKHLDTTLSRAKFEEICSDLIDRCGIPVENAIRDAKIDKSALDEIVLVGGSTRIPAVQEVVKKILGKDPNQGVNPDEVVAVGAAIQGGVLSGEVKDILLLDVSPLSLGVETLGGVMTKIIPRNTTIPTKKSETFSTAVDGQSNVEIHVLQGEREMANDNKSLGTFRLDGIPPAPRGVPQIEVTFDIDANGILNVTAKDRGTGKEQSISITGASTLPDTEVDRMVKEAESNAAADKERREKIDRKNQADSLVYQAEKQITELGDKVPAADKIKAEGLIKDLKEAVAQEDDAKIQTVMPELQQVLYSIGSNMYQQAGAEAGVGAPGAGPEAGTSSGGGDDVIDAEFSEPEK

[2] = target: T3, DnaK2 from Synechocystis sp. PCC6803, His-tagged (Synechocystis sp. PCC6803, UniProt P22358 1-636, RED-tris-NTA dye on the His-tag (MST only)); assay: as above; settings: both partners purified
T3 construct: Hsp70 chaperone DnaK2, Synechocystis sp; PCC6803; gene amplified from total DNA with primers Fwdnak2 (NdeI-ATG) and Rvdnak2 (stop codon), cloned into pET16b; source: E. coli Lemo21, purified (Ni-NTA HisTrap, Superdex 200); not shown: His-tag, N-terminal, kept
T3 sequence (P22358 whole entry): as the sequence (P22358 whole entry, one chain of several) above

[3] = target: T1, RbcL (Rubisco large subunit) from …; assay: MST; with ATP
[4] = target: B1; assay: MST; His-tagged chaperone labelled with RED-tris-NTA (4 µM or 200 nM) and unfolded RbcL in PBS-T (0.1% Tween 20), with ATP; Monolith NT.115 pico; 1:1 binding model; settings: both partners purified

Kd [1] [nM]	Kd [2] [nM]	Kd [3] [nM]	Kd [4] [nM]	Binder
31.1 ± 1.17	6050 ± 3410			B1
		1.36	1360 ± 2760	DnaJ Sll1384 from Synechocystis sp. PCC6803, His-tagged (natural protein, UniProt P74157 1-314, looked up, RED-tris-NTA dye on the His-tag (MST only), DnaJ homolog Sll1384 (J domain plus C-terminal TPR domain), Synechocystis sp; PCC6803; gene amplified from total DNA with primers Fwsll1384 (NdeI-ATG) and Rvsll1384 (stop codon), cloned into pET16b; also called DnaJ Sll384; source: E. coli Lemo21, purified (Ni-NTA HisTrap, dialysis); not shown: His-tag, N-terminal, kept) MSSFPIKQGLFNYDVVDHHAILGCPLDATPEEIRKSYLKIAFQLHPDTSKATNEEEQALAAKLFSKFVNPAYEVLSRENDRKEHLLIIQQTVSNLASIGQPSFSSAESQKLQGAKQNLELVYRKVVTPLSKGLYEDFKTVFRKIAQVSEYNLIFLMVKGENASARPVFQTIASSKETVPPVVSGRSPQGPTPTPPINNPPAEELSPFEKSLRRAQENFDRRQYEKAIAELKSALKTDPKNAQAHCLLGMAYLKNNMMTMAKVHIGSAVKLDPNDPKVMAAKKELAKHTSSGSSQEGAKSSQGGFLGGLFGGKKK
